Test results as given in PMC7868338, “Identification of Functional Interactome of Colistin Resistance Protein MCR-1 in Escherichia coli” (Frontiers in Microbiology, 2020).

B1: MCR-1-200 catalytic domain protein (domain or fragment)
chain: SVGKLASIEYKKASAPKDTIYHAKDAVQATKPDMRKPRLVVFVVGETARADHVSFNGYERDTFPQLAKIDGVTNFSNVTSCGTSTAYSVPCMFSYLGADEYDVDTAKYQENVLDTLDRLGVSILWRDNNSDSKGVMDKLPKAQFADYKSATNNAICNTNPYNECRDVGMLVGLDDFVAANNGKDMLIMLHQMGNHGPAYFKRYDEKFAKFTPVCEGNELAKCEHQSLINAYDNALLATDDFIAQSIQWLQTHSNAYDVSMLYVSDHGESLGENGVYLHGMPNAFAPKEQRSVPAFFWTDKQTGITPMATDTVLTHDAITPTLLKLFDVTADKVKDRTAFIR
B2: SspB protein (SPR analyte) (natural protein)
chain: MDLSQLTPRRPYLLRAFYEWLLDNQLTPHLVVDVTLPGVQVPMEYARDGQIVLNIAPRAVGNLELANDEVRFNARFGGIPRQVSVPLAAVLAIYARENGAGTMFEPEAAYDEDTSIMNDEEASADNETVMSVIDGDKPDHDDDTHPDDEPPQPPRGGRPALRVVK
notes: Stringent starvation protein B, E. coli; also called Stringent starvation protein B
B3: MCR-1 full-length protein (enzyme)
chain: MMQHTSVWYRRSVSPFVLVASVAVFLTATANLTFFDKISQTYPIADNLGFVLTIAVVLFGAMLLITTLLSSYRYVLKPVLILLLIMGAVTSYFTDTYGTVYDTTMLQNALQTDQAETKDLLNAAFIMRIIGLGVLPSLLVAFVKVDYPTWGKGLMRRLGLIVASLALILLPVVAFSSHYASFFRVHKPLRSYVNPIMPIYSVGKLASIEYKKASAPKDTIYHAKDAVQATKPDMRKPRLVVFVVGETARADHVSFNGYERDTFPQLAKIDGVTNFSNVTSCGTSTAYSVPCMFSYLGADEYDVDTAKYQENVLDTLDRLGVSILWRDNNSDSKGVMDKLPKAQFADYKSATNNAICNTNPYNECRDVGMLVGLDDFVAANNGKDMLIMLHQMGNHGPAYFKRYDEKFAKFTPVCEGNELAKCEHQSLINAYDNALLATDDFIAQSIQWLQTHSNAYDVSMLYVSDHGESLGENGVYLHGMPNAFAPKEQRSVPAFFWTDKQTGITPMATDTVLTHDAITPTLLKLFDVTADKVKDRTAFIR

Key:
[1] = molecular target: T1, SspB protein (SPR analyte) (E. coli, UniProt P0AFZ3 1-165); assay: SPR
T1 chain: B2 chain

[2] = molecular target: T2, MCR-1-200 catalytic domain protein (E. coli (strain SHP45), UniProt A0A0R6L508 201-541); assay: SPR; Reichert 4SPR; MCR-1 or MCR-1-200 in PBS directly immobilised on a Planar Mixed SAM chip; SspB 0.156-5 μM (twofold dilutions) in PBST pH 7.4, 0.05% Tween-20; conditions: both partners purified
T2 construct: catalytic domain of MCR-1, 341 amino acids; also called catalytic domain of MCR-1; MCR-1 catalytic protein; source: E. coli BL21 (DE3) (pET28a-mcr-1-200), IPTG-induced; in lysate (1% DDM) for the Co-IP; purified (Ni-NTA) for SPR
T2 sequence: B1 chain

[3] = molecular target: T3, MCR-1 full-length protein (E. coli (strain SHP45), UniProt A0A0R6L508 1-541); assay: as above; conditions: both partners purified
T3 construct: MCR-1, phosphoethanolamine transferase; gene amplified from E. coli strain SHP45; 541 amino acids; also called His6-MCR-1; source: E. coli BL21 (DE3) (pET28a-mcr-1), IPTG-induced; in lysate (1% DDM) for the Co-IP; purified (Ni-NTA) for SPR
T3 sequence: B3 chain

| Binder | koff [1] | Kd [2] | Kd [3] |
| --- | --- | --- | --- |
| B1 | 0.0106 s⁻¹ |  |  |
| B2 |  | 5.13 µM | 140 µM |
| B3 | 0.325 s⁻¹ |  |  |
